According to article PMC5540999, “In vivo monitoring of the recruitment and activation of AP-1 by Arf1” (Scientific Reports, 2017):

Target: T1, β1-RlucII (human, UniProt Q10567 1-949)
T1 construct: β1 subunit of AP-1, human; amplified by PCR minus the stop codon; also called β-RlucII; source: HEK293T, transfected, in live cells (BRET), cell fractions and lysate (co-IP); not shown: RlucII, C-terminal, kept
T1 sequence (looked up): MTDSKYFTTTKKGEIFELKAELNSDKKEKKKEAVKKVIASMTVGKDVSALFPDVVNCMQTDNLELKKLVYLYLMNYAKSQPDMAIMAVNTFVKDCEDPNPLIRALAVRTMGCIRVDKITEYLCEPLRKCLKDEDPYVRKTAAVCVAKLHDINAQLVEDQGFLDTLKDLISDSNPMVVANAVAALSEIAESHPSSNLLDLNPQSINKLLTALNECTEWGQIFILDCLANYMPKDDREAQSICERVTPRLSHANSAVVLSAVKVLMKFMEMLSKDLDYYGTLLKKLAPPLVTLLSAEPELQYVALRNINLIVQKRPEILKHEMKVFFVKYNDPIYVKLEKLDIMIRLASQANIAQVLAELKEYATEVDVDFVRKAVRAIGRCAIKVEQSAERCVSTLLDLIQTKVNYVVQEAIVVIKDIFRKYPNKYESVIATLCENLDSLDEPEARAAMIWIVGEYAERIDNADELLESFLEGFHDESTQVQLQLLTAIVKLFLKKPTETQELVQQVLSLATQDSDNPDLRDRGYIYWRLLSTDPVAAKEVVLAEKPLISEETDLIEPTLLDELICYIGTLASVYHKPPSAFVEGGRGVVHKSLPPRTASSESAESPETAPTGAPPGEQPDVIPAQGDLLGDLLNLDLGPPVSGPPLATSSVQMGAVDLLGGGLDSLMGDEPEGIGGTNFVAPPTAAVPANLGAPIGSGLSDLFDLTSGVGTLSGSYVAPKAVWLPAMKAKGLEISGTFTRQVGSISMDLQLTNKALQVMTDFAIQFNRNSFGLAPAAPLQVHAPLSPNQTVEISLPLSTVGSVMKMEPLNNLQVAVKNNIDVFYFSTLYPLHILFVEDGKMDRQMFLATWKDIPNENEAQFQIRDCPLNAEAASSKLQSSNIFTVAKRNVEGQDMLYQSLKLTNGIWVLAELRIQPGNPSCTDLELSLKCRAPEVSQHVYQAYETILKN
Test: FRET or BRET; BRET^2 in live HEK293T cells (γ/µ1 also in Arf1-KO cells; some panels with Brefeldin A 10 µM 15 min or co-expressed Arf1-HA forms): low constant amount of the RlucII donor, increasing amounts of the GFP10 acceptor; coelenterazine 400a 5 µM; BRET50 and BRETmax from a one-site saturation fit
Conditions: partners not purified

fold decrease of BRET50 in the presence of Arf1^Q71L-HA: ~4 fold
B1: β1-GFP10 (AP-1 β1 subunit, wild type) (natural protein, human, UniProt Q10567 1-949, looked up)
chain: T1 sequence (looked up)
notes: β1 subunit of the adaptor protein complex 1 (AP-1), human; amplified by PCR minus the stop codon; also called β-GFP10; full-length β1-GFP10; source: HEK293T, transfected, in live cells (BRET), cell fractions and lysate (co-IP); not shown: GFP10, C-terminal, kept
